Data from patent publication US20130231277A1 (NEW YORK UNIVERSITY, published 2013).

Experiments:
[1] = molecular target: T1, ectodomain of murine βKlotho (F53 to L995 of SEQ ID NO: 218) with a C-terminal FLAG tag (murine, UniProt Q99N32 53-995); assay: SPR; FGF23 immobilized, increasing concentrations of βKlotho ectodomain passed over the chip (FIG. 4C)
T1 construct: Expressed in HEK293 cells and purified from culture media; also called βKlotho ectodomain; not shown: C-terminal FLAG tag
T1 sequence: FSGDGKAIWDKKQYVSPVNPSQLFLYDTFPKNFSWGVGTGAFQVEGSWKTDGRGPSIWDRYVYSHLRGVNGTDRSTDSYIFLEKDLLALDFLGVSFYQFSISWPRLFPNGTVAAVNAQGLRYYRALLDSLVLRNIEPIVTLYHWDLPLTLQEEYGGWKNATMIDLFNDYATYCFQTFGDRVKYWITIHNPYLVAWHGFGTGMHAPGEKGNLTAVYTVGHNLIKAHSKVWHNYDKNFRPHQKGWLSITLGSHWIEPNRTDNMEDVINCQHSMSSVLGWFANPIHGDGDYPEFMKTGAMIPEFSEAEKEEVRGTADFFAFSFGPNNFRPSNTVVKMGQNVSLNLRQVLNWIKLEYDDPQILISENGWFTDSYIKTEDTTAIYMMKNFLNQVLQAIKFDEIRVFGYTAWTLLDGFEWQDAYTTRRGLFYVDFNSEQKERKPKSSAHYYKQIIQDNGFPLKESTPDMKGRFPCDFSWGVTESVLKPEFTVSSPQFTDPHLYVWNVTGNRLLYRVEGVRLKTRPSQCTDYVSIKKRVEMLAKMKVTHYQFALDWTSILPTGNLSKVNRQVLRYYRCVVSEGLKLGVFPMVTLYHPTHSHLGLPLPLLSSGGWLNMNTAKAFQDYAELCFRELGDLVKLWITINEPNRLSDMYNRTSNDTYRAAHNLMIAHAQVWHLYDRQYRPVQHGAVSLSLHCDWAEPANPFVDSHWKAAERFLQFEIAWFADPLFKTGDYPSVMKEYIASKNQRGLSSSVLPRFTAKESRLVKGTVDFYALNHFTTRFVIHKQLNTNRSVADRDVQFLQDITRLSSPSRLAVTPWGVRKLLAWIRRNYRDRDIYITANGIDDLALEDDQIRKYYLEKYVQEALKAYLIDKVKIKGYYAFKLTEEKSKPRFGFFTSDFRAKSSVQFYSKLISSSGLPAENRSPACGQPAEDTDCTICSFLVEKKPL
Source text: FGF19 was immobilized on a biosensor chip, and increasing concentrations of βKlotho ectodomain were passed over the chip. […] FGF21 was immobilized on a biosensor chip, and increasing concentrations of βKlotho ectodomain were passed over the chip. Note that for any given concentration of βKlotho, the binding response is greater on the FGF19 chip surface than on the FGF21 chip surface. Also note that the FGF19-βKlotho complex dissociates more slowly than the FGF21-βKlotho complex (compare the dissociation phases of the sensorgrams shown in (A) and (B)). […] FGF23 was immobilized on a biosensor chip, and increasing concentrations of βKlotho ectodomain were passed over the chip. […] FGF19 was immobilized on a biosensor chip, and increasing concentrations of αKlotho ectodomain were passed over the chip. […] FGF21 was immobilized on a biosensor chip, and increasing concentrations of αKlotho ectodomain were passed over the chip. […]
SPR experiments were performed on a Biacore 2000 instrument (Biacore AB), and all the protein-protein and protein-peptide interactions were studied at 25° C. in HBS-EP buffer (10 mM HEPES-NaOH, pH 7.4, 150 mM NaCl, 3 mM EDTA, 0.005% (v/v) polysorbate 20). […] In experiments where βKlotho binding to FGFR was analyzed, the chip surface was then regenerated by injecting 50 μl of 2.0 M NaCl in 10 mM sodium/potassium phosphate, pH 6.5.

[2] = molecular target: T1, ectodomain of murine βKlotho (F53 to …); assay: SPR; βKlotho ectodomain immobilized, FGFR ligand-binding domain as analyte (FIG. 3B)
Procedure: FIGS. 3A-3G show the FGFR binding specificity profile of βKlotho. […] Where binding was observed, the dissociation constant (KD) was calculated from the saturation binding curve. The data shown in FIGS. 3A-G are representative of two to five independent experiments.
(§1) SPR experiments were performed on a Biacore 2000 instrument (Biacore AB), and all the protein-protein and protein-peptide interactions were studied at 25° C. in HBS-EP buffer (10 mM HEPES-NaOH, pH 7.4, 150 mM NaCl, 3 mM EDTA, 0.005% (v/v) polysorbate 20). Proteins were immobilized by amine coupling on flow channels of research grade CM5 chips (Biacore AB). Proteins were injected over a CM5 chip at a flow rate of 50 μl min⁻¹, and at the end of each protein injection (180 s), HBS-EP buffer (50 μl min⁻¹) was flowed over the chip to monitor dissociation for 180 s. In experiments where βKlotho binding to FGFR was analyzed, the chip surface was then regenerated by injecting 50 μl of 2.0 M NaCl in 10 mM sodium/potassium phosphate, pH 6.5. In experiments where α/βKlotho binding to FGF19/21/23 or binding of the FGFR1c-βKlotho complex to FGF21 was studied, 2.0 M NaCl in 10 mM sodium acetate, pH 4.5 was used for chip regeneration. To control for nonspecific binding in experiments where the ectodomain of αKlotho or βKlotho was immobilized on the chip, β-glucuronidase was coupled to the control flow channel of the chip (˜43-68 fmol/mm²).

[3] = molecular target: T2, 1:1 binary complex of FGFR1c ligand-binding domain and βKlotho ectodomain (human; murine, UniProt P11362 142-365; Q99N32 53-995); assay: SPR competition; FGF21 immobilized, FGFR1c-βKlotho complex mixed with an equimolar amount of the chimera (FIG. 15F)
T2 construct: also called FGFR1c-βKlotho complex; FGFR1c-βKlotho; not shown: C-terminal FLAG tag
T2 sequence 1: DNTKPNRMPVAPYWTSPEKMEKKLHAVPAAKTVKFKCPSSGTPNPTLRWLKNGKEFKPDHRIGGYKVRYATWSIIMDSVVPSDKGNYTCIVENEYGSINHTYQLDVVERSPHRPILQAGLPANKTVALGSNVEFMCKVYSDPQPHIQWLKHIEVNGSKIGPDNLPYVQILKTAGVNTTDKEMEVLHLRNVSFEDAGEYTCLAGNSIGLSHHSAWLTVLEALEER
T2 sequence 2: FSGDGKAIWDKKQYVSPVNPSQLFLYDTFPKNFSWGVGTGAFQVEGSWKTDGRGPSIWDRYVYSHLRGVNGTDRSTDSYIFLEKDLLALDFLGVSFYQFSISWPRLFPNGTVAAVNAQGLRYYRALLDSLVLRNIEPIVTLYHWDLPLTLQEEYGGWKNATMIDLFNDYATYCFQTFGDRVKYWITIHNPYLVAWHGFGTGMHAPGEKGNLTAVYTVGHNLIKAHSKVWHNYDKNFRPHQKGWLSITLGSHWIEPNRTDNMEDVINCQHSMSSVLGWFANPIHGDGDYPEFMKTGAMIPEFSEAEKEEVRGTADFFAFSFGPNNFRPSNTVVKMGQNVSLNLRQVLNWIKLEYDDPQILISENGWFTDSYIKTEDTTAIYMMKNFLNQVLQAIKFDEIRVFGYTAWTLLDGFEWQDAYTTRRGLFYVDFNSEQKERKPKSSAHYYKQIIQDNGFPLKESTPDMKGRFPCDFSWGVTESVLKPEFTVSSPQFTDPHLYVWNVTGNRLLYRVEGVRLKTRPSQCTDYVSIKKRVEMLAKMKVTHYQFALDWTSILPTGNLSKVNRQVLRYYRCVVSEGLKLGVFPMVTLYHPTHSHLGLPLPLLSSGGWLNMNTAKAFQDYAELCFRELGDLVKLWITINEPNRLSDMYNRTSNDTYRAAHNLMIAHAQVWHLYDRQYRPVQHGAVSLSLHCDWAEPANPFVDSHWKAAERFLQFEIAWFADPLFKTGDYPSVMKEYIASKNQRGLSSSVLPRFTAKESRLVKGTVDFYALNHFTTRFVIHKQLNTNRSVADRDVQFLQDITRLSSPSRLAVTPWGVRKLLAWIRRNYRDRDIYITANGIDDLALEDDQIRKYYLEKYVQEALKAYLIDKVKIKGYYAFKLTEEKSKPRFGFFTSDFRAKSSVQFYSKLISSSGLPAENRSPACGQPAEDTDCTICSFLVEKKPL
Procedure: To examine whether mutants of FGF21 or chimeras composed of a N-terminal portion of FGF21 and a C-terminal portion of FGF19 can compete with wild-type ligand for binding to the FGFR1c-βKlotho complex, FGF21 was immobilized on a chip (˜30 fmol/mm² of flow channel). Increasing concentrations of FGF21 mutant or chimera (0-60 nM) were mixed with a fixed concentration of 1:1 complex of FGFR1c ligand-binding domain and βKlotho ectodomain (10 nM), and the mixtures were passed over the chip. As a control, competition of FGF21 in solution with immobilized FGF21 for binding to the FGFR1c-βKlotho complex was studied. The results are shown in FIGS. 14A to 14D and 15A to 15F.
A competition binding assay was selected over a direct binding assay because its binding data are not confounded by the effects that the coupling of one binding partner to the chip might have. Specifically, it was examined whether a mutant or chimera can compete with native FGF21 for binding to the FGFR1c-βKlotho complex. […] FGF21 was immobilized on a biosensor chip, and mixtures of a fixed concentration of FGFR1c-βKlotho complex with increasing concentrations of either FGF21 mutant or FGF21/FGF19 chimera were passed over the chip. As a control, competition of FGF21 in solution with immobilized FGF21 for binding to the FGFR1c-βKlotho complex was studied.

[4] = molecular target: T2, 1:1 binary complex of FGFR1c …; assay: SPR competition; FGF21 immobilized, FGFR1c-βKlotho complex mixed with the chimera (FIGS. 15E, 15F)
Source text: In the experiments shown in FIGS. 15A-15C, increasing concentrations of either an FGF21/FGF19 chimera or wild-type FGF21 were mixed with a fixed concentration of FGFR1c-βKlotho complex, and the mixtures were passed over a FGF21 chip. […] The data shown in FIGS. 15A-15C are representative of two to three independent experiments. Included in FIGS. 15E-15F are SPR sensorgrams obtained from injecting mixtures of the FGF21²⁹⁻¹⁹⁰/FGF19¹⁹⁷⁻²¹⁶ chimera with the FGFR1c-βKlotho complex over a FGF21 chip.
SPR experiments were performed on a Biacore 2000 instrument (Biacore AB), and all the protein-protein and protein-peptide interactions were studied at 25° C. in HBS-EP buffer (10 mM HEPES-NaOH, pH 7.4, 150 mM NaCl, 3 mM EDTA, 0.005% (v/v) polysorbate 20). Proteins were immobilized by amine coupling on flow channels of research grade CM5 chips (Biacore AB). Proteins were injected over a CM5 chip at a flow rate of 50 μl min⁻¹, and at the end of each protein injection (180 s), HBS-EP buffer (50 μl min⁻¹) was flowed over the chip to monitor dissociation for 180 s.

[5] = molecular target: T1, ectodomain of murine βKlotho (F53 to …); assay: SPR competition; FGF21 immobilized, fixed βKlotho ectodomain mixed with increasing chimera (FIGS. 7B, 7C)
Procedure: Increasing concentrations of FGF21 were mixed with a fixed concentration of βKlotho ectodomain, and the mixtures were passed over a FGF21 chip. […] Increasing concentrations of FGF21²⁹⁻¹⁹⁰/FGF19¹⁹⁷⁻²¹⁶ chimera were mixed with a fixed concentration of βKlotho ectodomain, and the mixtures were passed over a FGF21 chip. […] The figure was created from the data shown in FIGS. 7A-B, which are representative of two independent experiments.
as §1, with “To control for nonspecific binding in experiments where the ectodomain of αKlotho or βKlotho was immobilized on the chip, β-glucuronidase was coupled to the control flow channel of the chip (˜43-68 fmol/mm²).” left out

B1: human FGF23, secreted bioactive form (Y25 to I251 of SEQ ID NO: 223) with arginines 176 and 179 replaced with glutamine (ligand)
chain: YPNASPLLGSSWGGLIHLYTATARNSYHLQIHKNGHVDGAPHQTIYSALMIRSEDAGFVVITGVMSRRYLCMDFRGNIFGSHYFDPENCRFQHQTLENGYDVYHSPQYHFLVSLGRAKRAFLPGMNPPPYSQFLSRRNEIPLIHFNTPIPRQHTQSAEDDSERDPLNVLKPRARMTPAPASCSQELPSAEDNSPMASDPLGVVRGGRVNTHAGGTGPEGCRPFAKFI
notes: The cleavage site was mutated to minimize proteolysis; Used as specificity control on the SPR chip
binding result [1]: no binding

B2: ligand-binding domain of human FGFR2c (N149 to E368 of SEQ ID NO: 226) (receptor)
chain: NNKRAPYWTNTEKMEKRLHAVPAANTVKFRCPAGGNPMPTMRWLKNGKEFKQEHRIGGYKVRNQHWSLIMESVVPSDKGNYTCVVENEYGSINHTYHLDVVERSPHRPILQAGLPANASTVVGGDVEFVCKVYSDAQPHIQWIKHVEKNGSKYGPDGLPYLKVLKAAGVNTTDKEIEVLYIRNVTFEDAGEYTCLAGNSIGISFHSAWLTVLPAPGREKE
binding result [2]: binds

B3: FGF21^29-197/FGF19^204-216 chimera (H29 to V197 of human FGF21 and T204 to K216 of human FGF19; SEQ ID NO: 205) (ligand)
chain: HPIPDSSPLLQFGGQVRQRYLYTDDAQQTEAHLEIREDGTVGGAADQSPESLLQLKALKPGVIQILGVKTSRFLCQRPDGALYGSLHFDPEACSFRELLLEDGYNVYQSEAHGLPLHLPGNKSPHRDPAPRGPARFLPLPGLPPALPEPPGILAPQPPDVGSSDPLSMVTGLEAVRSPSFEK
notes: Chimera of human FGF21 and human FGF19, purified from E. coli inclusion bodies; also called FGF21^C-tail variant 19-41; printed once as FGF21^29-97/FGF19^204-216
percent inhibition of FGFR1c-βKlotho binding to immobilized FGF21 at an equimolar ratio of chimera to complex [3]: ≤ 75%

B4: FGF21^29-190/FGF19^197-216 chimera (H29 to S190 of human FGF21 and M197 to K216 of human FGF19; SEQ ID NO: 206) (ligand)
chain: HPIPDSSPLLQFGGQVRQRYLYTDDAQQTEAHLEIREDGTVGGAADQSPESLLQLKALKPGVIQILGVKTSRFLCQRPDGALYGSLHFDPEACSFRELLLEDGYNVYQSEAHGLPLHLPGNKSPHRDPAPRGPARFLPLPGLPPALPEPPGILAPQPPDVGSMDPFGLVTGLEAVRSPSFEK
notes: Chimera of human FGF21 and human FGF19, purified from E. coli inclusion bodies; also called FGF21^C-tail variant 19-45
binding result [4]: binds
binding result [5]: binds
